Patent US20250336476A1 (published 2025)

B1: Nb17 (VHH)
VHH: HVQLVESGGGLVQAGGSLRLSCAASGSIFSSNAMSWYRQAPGKQRELVASITSGGNADYADSVKGRFTISRDKNTVYPEMSSLKPADTAVYYCHAVGQEASAYAPRAYWGQGTQVTVS
B2: Nb21 WT (VHH)
VHH: QVQLVESGGGLVQAGGSLRLSCAVSGLGAHRVGWFRRAPGKEREFVAAIGANGGNTNYLDSVKGRFTISRDNAKNTIYLQMNSLKPQDTAVYYCAARDIETAEYTYWGQGTQVTVSS
B3: humanized Nb21 (hNb21) (VHH)
VHH: QVQLVESGGGLVQPGGSLRLSCAASWFRRAPGKEREFVAYADSVKGRFTISRDNAKNTLYLQMNSLRAEDTAVYYCAAWGQGTLVTVS
B4: Nb105 (VHH)
VHH: HVQLVESGGGLVQAGGSLRLSCAVSGRTFSTYGMAWFRQAPGKERDFVATITRSGETTLYADSVKGRFTISRDNAKNTVYLQMNSLKIEDTAVYYCAVRRDSSWGYSRDLFEYDYWGQGTQVTVS
B5: Nb9 (VHH)
VHH: HVQLVESGGGLVQTGGSLRLSCAFSGYTFSTFPTAWFRQAPGKEREFVAGIRWNGGSRDYTEYADFVKGRFTISRDNAKNMIYLQMISLKPEDTALYYCAASHGVVDGTSVNGYRYWGQGTQVTVS
B6: Nb93 (VHH)
VHH: EVQLVESGGGLVQPGGSLRLSCAASGFTFSSYAMSWVRQAPGKGREWVAGITPGSGTFYADSVKGRFTISRDNAKNTLSLEINSLKPEDTALYYCAKCRQEFSWDFSSRDPDDFDYWGQGTQVTVS
B7: Nb64 (VHH)
VHH: QVQLVESGGGLVQAGGSLRLSCAVSGRTFSIAGMGWFRQAPGKDREFLGGITWNDGTTWYADSVKGRFTISRDNAKNMLSLRMNSLKPEDTAVYYCAAGPRLGSTPRAYDYWGQGTQVTVS
B8: Nb95 (VHH)
VHH: QVQLVESGGGLVQAGGSLRLSCAASGRTFSSYSMGWFRQAQGKEREFVATINGNGRDTYYTNSVKGRFTISRDDATNTVYLQMNSLKPEDTAIYYCAADKDVYYGYTSFPNEYEYWGQGTQVTVS
B9: Nb34 (VHH)
VHH: DVQLVESGGGLVQAGGSLRLSCAASGFTFSNYVMYWGRQAPGKGREWVSGIDSDGSDTAYASSVKGRFTISRDNAKNTLYLQMNNLKPEDTALYYCVKSKDPYGSPWTRSEFDDYWGQGTQVTVS

What was measured:
[1] = target: RBD (SARS-CoV-2 spike) (SARS-CoV-2, UniProt P0DTC2 319-541); assay: ELISA
[2] = target: RBD (SARS-CoV-2, UniProt P0DTC2 319-541); assay: ELISA

Binder | EC50 [1] | EC50 [2]
B1 | 0.97 nM | –
B2 | – | 1.69 nM
B3 | 1.34 nM | –
B4 | 1.69 nM | –
B5 | 2.76 nM | –
B6 | 1.13 nM | –
B7 | 1.22 nM | –
B8 | 3.77 nM | –
B9 | 0.53 nM | –
